From patent publication US20240424167A1
One block for each binder: values may come before it. No end group written: not given here.

What was measured:
[1] = target: type I collagen of the SIS membrane; assay: CLSM, SIS membrane soaked in 200 µM chimeric peptide solution (H-pSIS)
[2] = target: type III collagen of the SIS membrane; assay: as above

- fluorescent area of the SIS membrane [1]: > 85%
B1: P9 polypeptide (TKKTLRT+linker-1+Hst1) (peptide)
peptide: TKKTLRTGGGGSGGGGSSHREFPFYGDYGS
modifications: also: fluorescent label FITC or rhodamine B (paragraphs differ), position not given here

- fluorescent area of the SIS membrane [2]: > 85%
B2: P11 polypeptide (KELNLVY+linker-1+Hst1) (peptide)
peptide: KELNLVYGGGGSGGGGSSHREFPFYGDYGS
modifications: also: fluorescent label rhodamine B or FITC (paragraphs differ), position not given here

- fluorescent area of the SIS membrane [1]: > 85%
B3: P10 polypeptide (TKKTLRT+linker-1+JH8194) (peptide)
peptide: TKKTLRTGGGGSGGGGSKRLFRRWQWRMKKY
modifications: also: fluorescent label FITC or rhodamine B (paragraphs differ), position not given here

- fluorescent area of the SIS membrane [2]: > 85%
B4: P12 polypeptide (KELNLVY+linker-1+JH8194) (peptide)
peptide: KELNLVYGGGGSGGGGSKRLFRRWQWRMKKY
modifications: also: fluorescent label rhodamine B or FITC (paragraphs differ), position not given here
